Consider one substance from publication PMC8430805.

Test [1] has as its target LysB endolysin (putative N-acetylmuramoyl-L-alanine amidase) from the prophage of Clostridium botuli (Clostridium botulinum E3 strain Alaska E43 (prophage)). Nature of the test: SEC.
Test [2] shares this target. As to the kind of experiment: AUC.

As for “LysB endolysin (putative N-acetylmuramoyl-L-alanine amidase) from the prophage of Clostridium botuli (enzyme)”, the stoichiometry N in test [1] and in test [2] was 2 in each case.
